{
  "source": "patent US8629107B2",
  "about": "“Genes and proteins associated with angiogenesis and uses thereof” (National Jewish Health, priority 2005, dated 2014)",
  "key": {"MB114 cells": {"test_system": "MB114 cells", "test": "angiogenic sprouting in rat tail collagen matrices", "type": "cell-based, murine", "method": "(§1) The effect putative angiogenic agents had on MB114 cell activities were determined as follows: (i) cell proliferation using a [^3H]thymidine incorporation assay as described (Albig et al, 2006; Albig and Schiemann, 2004; Albig and Schiemann, 2005); (ii) cell invasion through Matrigel matrices using a modified Boyden-chamber assay as described (Albig et al, 2006; Albig and Schiemann, 2004; Albig and Schiemann, 2005); (iii) p38 MAPK phosphorylation using immunoblot analyses as described (Albig et al, 2006; Albig and Schiemann, 2004; Albig and Schiemann, 2005); (iv) angiogenic sprouting in rat tail collagen matrices as described (Albig et al, 2006; Albig and Schiemann, 2004); and (v) Hes1- and SBE-driven luciferase reporter gene assays as described (Albig et al, 2006; Albig and Schiemann, 2004; Albig and Schiemann, 2005).\nFinally, it was determined whether expression of these putative angiogenic factors could effect the angiogenic sprouting of quiescent MB114 cells monolayers. MB114 cells expressing either GFP or various putative angiogenic agents were grown to confluency, and subsequently were overlaid with rat tail collagen matrices. Angiogenic sprouting by quiescent EC monolayers was stimulated by inclusion of 10% FBS and allowed to proceed for 5 days. The quantity of invading angiogenic sprouts was determined by manual counting under a light microscope.\nBased on the findings described in the Examples above, the inventors hypothesized that MAGP-2 promotes angiogenesis by antagonizing Notch1 signaling. To test this hypothesis, it was first determined whether inhibiting Notch signaling in MB114 cells would enhance their angiogenic sprouting. In doing so, MB114 cells were transiently transfected with the Hes1-luciferase reporter gene (and pCMV-β-gal cDNA as control), and subsequently were treated overnight with or without the highly specific gamma-secretase inhibitor, DAPT (Sastre et al, 2001), which inhibits S3-mediated cleavage of Notch1 and, consequently, NICD-mediated induction of Hes1 expression. Afterward, luciferase and β-gal activities were determined. […] In this experiment, quiescent MB114 cell monolayers were overlaid with rat tail collagen matrices, and were induced to form angiogenic sprouts by addition of 10% FBS supplemented with or without DAPT (10 μM). Five days later the number of invading angiogenic spouts were quantified by manual counting on a light microscope. Based on these findings, the inventors conclude that Notch activation functions in mediating angiostasis in MB114 cells. […] Collectively, these findings indicate that Notch1 signaling antagonizes angiogenic sprouting in MB114 cells, and that downregulation of Notch1 signaling components is necessary for angiogenesis activation in MB114 cells.\nHaving shown that Notch1 signaling mediates angiostasis in MB114 cells, the inventors next asked whether MAGP-2 promotes angiogenesis in MB114 cells via its ability to antagonize Notch signaling. To do so, MAGP-2-expressing MB114 cells were engineered to constitutively express active Notch1 NICD fragment in an attempt to overcome the block of Notch processing mediated by MAGP-2. More particularly, GFP-, MAGP-2-, and MAGP-2/N1ICD-expressing MB114 cells were transiently transfected with pHes1-luciferase and pCMV-β-gal cDNAs. Luciferase and β-gal activities were determined 48 h post-transfection. As the inventors observed previously, MAGP-2 expression reduced Hes1-luciferase activity in MB114 cells (FIG. 5C), a reaction that was bypassed by co-expression of NICD in these cells (FIG. 5C). […] In this experiment, quiescent monolayers of GFP-, MAGP-2-, and MAGP-2/N1ICD-expressing MB114 cells were overlaid with rat tail collagen matrices and incubated in the absence or presence of 10% FBS for 5 days. Afterward, the number of invading angiogenic sprouts were determined by manual counting under a light microscope."}, "[1]": {"test_system": "Hes1 promoter (Notch1 signaling)", "test": "Hes1-driven luciferase reporter gene assay in HUVEC cells", "type": "cell-based, human", "parameters": "dose or concentration left out as unconfirmed", "method": "as §1\nMAGP-2 can interact physically with Notch1 and its ligand, Jagged-1 (Miyamoto et al, 2006; Nehring et al, 2005), resulting in the ectodomain shedding of both molecules from the cell surface. […] To test this hypothesis, first measured were changes in luciferase expression driven by a Hes1-luciferase reporter gene whose expression is induced by Notch1 activation (Iso et al, 2003). […] Afterward, luciferase and β-gal activities contained in detergent-solubilized cell extracts were measured. […] Afterward, luciferase and β-gal activities were measured as above. […]"}, "[2]": {"test_system": "Hes1 promoter (Notch1 signaling)", "test": "Hes1-driven luciferase reporter gene assay in MB114 cells", "type": "cell-based, murine", "method": "as §1\nMAGP-2 can interact physically with Notch1 and its ligand, Jagged-1 (Miyamoto et al, 2006; Nehring et al, 2005), resulting in the ectodomain shedding of both molecules from the cell surface. Notch signaling also plays an essential role in regulating normal vessel development and angiogenesis in mammals (Leong and Karsan, 2005; Shawber and Kitajewski, 2004). Given these two facts, the inventors hypothesized that MAGP-2 promotes angiogenesis by modulating Notch1 signaling. To test this hypothesis, first measured were changes in luciferase expression driven by a Hes1-luciferase reporter gene whose expression is induced by Notch1 activation (Iso et al, 2003). MB114 and HUVEC cells were transiently transfected either with pHes1-luciferase, pCMV-β-gal, and MAGP-2 cDNAs, or with pHes1-luciferase and pCMV-β-gal cDNAs and subsequently stimulated with rMAGP-2 (1 or 5 mg/ml). Afterward, luciferase and β-gal activities contained in detergent-solubilized cell extracts were measured. In addition, GFP- and MAGP-2-expressing MB114 cells were transiently transfected with pHes1-luciferase and pCMV-β-gal cDNAs, together with or without Jagged-1 cDNA as indicated. Afterward, luciferase and β-gal activities were measured as above.\nTo further investigate the impact of MAGP-2 on Notch1 processing and NICD accumulation, the inventors took advantage of recent findings showing that the ability of TGF-β to induce Hes1 promoter activity requires Smad3 to interact physically with NICD (Blokzijl et al, 2003), a reaction that is dispensable for canonical Smad3-mediated signaling stimulated by TGF-β (Blokzijl et al, 2003). It was therefore reasoned that the ability of MAGP-2 to inhibit NICD production in ECs would reduce the capacity of TGF-β to induce luciferase expression driven by the Hes1 promoter, but not that driven by the synthetic Smad2/3-binding element (SBE). GFP- and MAGP-2-expressing MB114 cells were transiently transfected with either pHes1- or pSBE-luciferase, both together with pCMV-β-gal as indicated in FIG. 4B. Afterward, the resulting transfectants were stimulated overnight with increasing concentrations of TGF-β1 (0-5 ng/ml).\nBased on the findings described in the Examples above, the inventors hypothesized that MAGP-2 promotes angiogenesis by antagonizing Notch1 signaling. To test this hypothesis, it was first determined whether inhibiting Notch signaling in MB114 cells would enhance their angiogenic sprouting. […] Afterward, luciferase and β-gal activities were determined. […]"}},
  "note": "Entries after “also recorded” stand apart in the source; their conditions may differ.",
  "data": [
    {"molecule": "MAGP-2: secreted glycoprotein (25 kDa); stably expressed in MB114 cells by bicistronic retroviral transduction, Myc-His tagged (protein, left off: small tags and cut ends, secreted glycoprotein (25 kDa); stably expressed in MB114 cells by bicistronic retroviral transduction, Myc-His tagged) QRGDDVPETFTDDPNLVNDPSTDDTALADITPSTDDLAGDKNATAECRDEKFACTRLYSVHRPVRQCVHQSCFTSLRRMYIINNEICSRLVCKEHEAMKDELCRQMAGLPPRRLRRSNYFRLPPCENMNLQRPDGL", "values": [
      {"measurement": "angiogenic sprouting of quiescent MB114 cell monolayers", "setting": "MB114 cells; MB114 cells stably expressing the transgene vs GFP, 10% FBS, 5 days", "result": "significantly increased"},
      {"measurement": "Hes1-driven luciferase activity", "setting": "[1]; MAGP-2 expression in HUVEC cells", "result": "repressed"},
      {"measurement": "ability of Jagged-1 to induce Hes1-luciferase activity", "setting": "[2]; MAGP-2-expressing vs GFP-expressing MB114 cells, with Jagged-1 cDNA", "result": "abrogated"},
      {"measurement": "ability of TGF-β to stimulate Hes1-luciferase activity", "setting": "[2]; MAGP-2-expressing vs GFP-expressing MB114 cells, TGF-β1 0-5 ng/ml overnight", "result": "significantly decreased"},
      {"measurement": "Hes1-driven luciferase activity", "setting": "[2]; MAGP-2 expression in MB114 cells", "result": "repressed; also recorded: reduced"}
    ]},
    {"molecule": "rMAGP-2: recombinant FLAG-tagged MAGP-2 purified from bacterial cell extracts by anti-FLAG chromatography (protein, UniProt Q9QZJ6 29-164, looked up, FLAG tag, recombinant FLAG-tagged MAGP-2 purified from bacterial cell extracts by anti-FLAG chromatography) Microfibrillar-associated …: QRGDDVPETFTDDPNLVNDPSTDDTALADITPSTDDLAGDKNATAECRDEKFACTRLYSVHRPVRQCVHQSCFTSLRRMYIINNEICSRLVCKEHEAMKDELCRQMAGLPPRRLRRSNYFRLPPCENMNLQRPDGL", "values": [
      {"measurement": "angiogenic sprouting of quiescent MB114 cell monolayers", "setting": "MB114 cells; purified recombinant protein added, 1 μg/ml", "result": "stimulated"},
      {"measurement": "Hes1-driven luciferase activity", "setting": "[1]; HUVEC cells stimulated with recombinant protein", "result": "repressed"},
      {"measurement": "Hes1-driven luciferase activity", "setting": "[2]; MB114 cells stimulated with recombinant protein, 1 or 5 mg/ml", "result": "repressed"}
    ]}
  ]
}
